Literature values as cited in article PMC9826382.

Molecular target: HOP TPR2A (Homo sapiens) (UniProt P31948)
Experiment: SPR

UniProt P31948, sequence (P31948 223-352): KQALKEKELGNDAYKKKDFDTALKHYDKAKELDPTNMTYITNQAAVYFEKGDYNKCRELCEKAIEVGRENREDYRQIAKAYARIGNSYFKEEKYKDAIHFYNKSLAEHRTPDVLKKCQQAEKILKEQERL

Kd: 11 µM
Substance: HSP90 C-terminal peptide
